# In patent US12077763B2, “RNA-based control of powdery mildew” (Greenlight Biosciences, Inc., priority 2021, dated 2024):
# B1: GS1823: dsRNA trigger SEQ ID NO 158; gene target Guanine nucleotide-binding protein subunit beta-like protein (nucleic acid)
# DNA: TAGCCAGTATCTGTTAGGCGAAAAAACAAGCGCATGGATCAAATCACCAGCATTGAGAGAATATAAATGCTTAGACTCATTTAGATCCCACAACATAGTAGTCCCATCTTTCCCACCTGATGCGCAGAGAGAACCGTCCGGCGAGATGGTGACAGTATTTATGTAACCATTGTGGCCAATATGGTCAGTCTGTAGTTTACAAGAGGATAATTCCCAGACCTTCACAAGTTTGTCCCAGCTACTGCTGACAATGACTGGATTTTGTGGATTTGGGCTGAATCGTACACAAGATACCCAATCATTATGACCTTTTTCAGTAATGGTGAACTTGCAATCACCTAGAGTATTCCAGAGCTTAATTGTTCGATCACGAGAGCCCGAGACAATTTGCCTGTTGTCAGCGGAAAAAGAAACAGAAAGAACATCATTTGTGTGGCCGACAAATCTCCTTGTTGTGGTTCCTGTTGCAAGCTCCCAGAGTCGGAGAGTTTTATCCCAAGAAGCAGATAGAGCATAAGCACCATCAGAAGAAATTACACAGTCGGAAACTATATGAGAGTGGCCATGAAGTGATCGCTTTGGGTAACCGTAGGAA
# B2: GS1826: dsRNA trigger SEQ ID NO 180; gene target Adenosylhomocysteinase (nucleic acid)
# DNA: CGCGAGTAAGATTATATGACGACCATTCTTCATTAGAAAACGATCGACTTGGGGCTTAATATTTTGAACGCTTTGTGCATTAGCTTTAAGCCATGCGACATCTATTTCAATGTCAAAGTGTCCAATATTGCAAACAATAGCATCGTTAGGCATAACTTCAAAATGTTTTCCTACTAAAATGTCACGGCATCCTGTAGTAGTTACGAAGATCTGAGCTTGACTTGCGGCCTTTTCCATTGTGGTGACTTGGAAGCCAGAAACTGCAGCTTGTAAAGCATTTATAGGGTCAACCTCAGTAATTAGTACACGTGCACCCATACCCTGAAGAGCTAATGCACACCCTTTTCCAACATCACCAAAACCAGCAACAACGGCAATTTTTCCAGCAATCATAACATCGGTGGCTCGTTTAATACCATCGATCAAAGACTCGCGGCAGCCATAGAGATTGTCAAACTTAGACTTTGTGACAGAATCATTGACGTTAACCGCAGGCACGAGCAAAGTATTGTTTTTTAACATTTTATATAAATGGTGAACTCCAGTAGTGGTTTCCTCAGATACACCAAAGCAACCTTTTAACATTTCTGGATA
# B3: GS1833: dsRNA trigger SEQ ID NO 151; gene target Eukaryotic translation Initiation factor 3 subunit G (nucleic acid)
# DNA: ACCTCACTAGGGCCTTCAGTAGTTTCATTAATACTAGTTAAAGCATCTCCGCTGTTTTCTTCACCAATTGGAGCCATTGTATCTTTAAAGGGACATCGGGCTGTAAAATGCTCTCCATTACATATACGACATTTAACTTTCTTATCTTTTAATTTGTCTTTCATTATTCCTGCCTCTGTTTTTTCATCTTTGGCATCTTTTTTCCAGTTGGCACTCGGTCTGAAAGTTATATTTTCACCAATAGATGTGGTTGAGCTATCTGGTCCGGGTTGATCTTTAGCAGAGAGTCCAAATTTACTCCACTGCTTTCTCTCGGCAACTCTAGGATTTACAATTTCTTTGTGTGTAGTGAAACGAATTCGTCTGGTATATTTGATCTTTTTTCCATCTTCATCGATTCGATAACTTACGATAGTTTGAGAGCCATCTTTATTAGTTGTTGTAGTTGTAGGAGGAAGTTGTTCTTCAATCCGGTCAACGGAAAGATCTTCATCGTCGGCCCAGTCAGCGCGAACAGATTGTTTAGACATTTTTCAAAATATTTTAATTAAATACTTGCAAATGGAAAGCTTGTAAATTCAAGCAAGTAT
# B4: GS1824: dsRNA trigger SEQ ID NO 200; gene target WD repeat domain-containing protein 83 (nucleic acid)
# DNA: CTTGCCATCTCTTCCAACCTTTCTCTTACCATCAAACTTTGTTCCTTTTACTGTGATCCTCTCGACAAGTTTTCCGCTCAATGTATCCCAGACAACCACTTCACCATCTTGTCCTTCAATATTCTCGTTTCCAGAAAGTATCCATCTCTCTCTTCCACCAAAACAGTTCCATATTCGAAATTCTTTGTTTTCCCAGCAATCTGCACGATAACTCCTTAGTAATTTACCATTCTCGGTATCCATTAGTCTAAGCTGACTATCCAGTCCACCTACAAGTAGACCTTTTTTATCTATTGTCTTCCTTAGACATGTCACAGGAGCACCAATAACATCGACAACAATTTGTCCCATTCTAATGTCGTATTTCCTAACTTTTCCATCGACACTACTGGTCCATATCTCGCTATCACTCGCTAATACGCAGCTCACACTATCACCAGCCTCTGTTAGAACCATAACTGGCTTAGCACTCGAGCTCTTCACATCCCAGATACGAGCACTGGCATCAAAACCTCCACTAATAAGAAGACTGGCTCCATCCCCAGCAAAAGTAACGGTATTGATGCGTGCCGAATGACCATTGTTGCCACTAAAT
# B5: GS1825: dsRNA trigger SEQ ID NO 141; gene target Serine/threonine-protein kinase cek1 (nucleic acid)
# DNA: CGACCGATTAATCCCATTCTAGACAAGCCAAAATCTGTCAATTTAAGATGGCCTTTCTGATCAATTAAGAGATTGTCAGGTTTAAGATCTCGATGAACTATCCCTCGACTATGAAGATGTTTGACCCCTAGGATAACCTCACCTAAGTATTTTCTTGCCCAATCCTCTTGAAGACCGCCTAAAGCCTTTATAAGTGACGCACAGTCGCCTCCATTCAAATATTCCATAACCAAGTAGAGATAGTCTTTACTTGAGAATGTCCAGTATAATTTAGCTACAAAGTCACTCTCACCTTGCCACATCATGATTGCACGTTCAGCTTTAACGTTAGTTACCTGATTTTTGGCTACCATATCGGCTTTTTTAAGTACTTTGATTGCATAGTAGTCACCTGTAGATTTTTTCTTGGCAAGATAAACACTTCCGAATGCACCTTTACTGATAGGTTTTATTATTTCAAAGTCTTTTATGGAGGGTGGAACAATACGGGCTTGGGGAACACCGACAGTTGATAAACGAGGTGATGGAGGTAGTCGAGATGGGTCAGAGCCTGCAGCAGAAGATTGACGTCTATGGTGATGAGGTAGAAGAGCA
# B6: GS1831: dsRNA trigger SEQ ID NO 115; gene target glycosyl_partial (nucleic acid)
# DNA: CTGAATTGTTTTGAGACTGTTTATTACGAAACCCATTACTTTTGTCTTTGATATGGAATCTCCGATTGACAAACAATGTTTCGTCAGGTTTTGGTTCATAGCTAGTGGTCATTCCAATGGCACCTCTAATGTTATTAATAACAGTATTGAGTGATTGCTCAGGCATTAAACAAGCTGGGCGACATTCGGGTATATTTGAAACAGATTGTAAAATTTTGTCACGAAGGGTTGTTTCGTCTTGAAAATTTGGTCGCAAGCATAACTGGAGATTACGAAGTTGTTTTACTAATATTTCAAATACATCAAGCAATGGCTTTTCAGAATGTTGACTAGAAAGAAGTTGCAAGGTAATTTTGTTCCATTCATTCTGTGCATTTCTCTGTTTTTGTGGTCCTTCAAATTGGCCAAGCATTAATTGAGAGATTTCATCGATCTGTATTGCATTGCTACAGCGATGATGGTAGAAGTCTAATGCTTCTTTGTTAAACATTAAGAACATAGAAGACAGGATGTCTTTTTCATTTTCGATGCTCGCTAATTCGCATTTTTTCAAAAAGATGTTTAACTTGAAGTTATAGCTATCATCTTTT
# B7: GS1827: dsRNA trigger SEQ ID NO 195; gene target Ubiquitin-like modifier-activating enzyme 1 (nucleic acid)
# DNA: AAAGTTATCGCCGAAGTCGCAGAATATATATCCAAATAATCCAAAGGTTTCAGTTATTACTACATATATTCCCTTCTCATGTAGATACTGGGAGATTATGAGCTGGTCTTTCAGTGGAATATCTGTCAATATTACAGCTTGATATGAATCAAACTGGGAGAGATCAGAAACTAAGCTTGTGGAGCTGTGAATCTTAACAGGGGTGTAAGCATTTAGTTCCGAAACTCGTTGAGCTGAGACAATATCTCTAGGTTTTCCTATATCTTCTGGGTTAAGAAAGAATTGAGATGATAGGTCAGCGATAGTTGCGGGAGCGGGATCGTATAATGTTAGACTTTTAACTCCAGCCAGAGCTATATTCTTAGCTATTTCGATACCAAGACCTTTCAAGCCAATAATAAGAATATTCGATGCACTCATTCGTTTCATAGCCTCGTGTCCAAGAACGTAGAGTTGCCTACTGTATAAAGACTCATCGATAACATTATTATTTTCTTGTGACTCATCAACTTCCATCTTCATCTTGTCTTCAATTTTACTGACTTCACTCATCTTGAATACTTCCTGTAAATCCAATTTACATCAACTGAATTA
# B8: GS1830: dsRNA trigger SEQ ID NO 178; gene target Regulator of nonsense transcripts 1 homolog (nucleic acid)
# DNA: CCGAGTTAAAGCTACATTTAAACGTCTTGGGTCACTTAAGAACCCAATTCCTTGATGGTCATTTGATCGAACACATGATAAAACAATGAAGTCTTTTTCACGCCCTTGAAAAGCATCGACTGAAGCAACTTCAATTTCCCTGTAGTTTTCTTTTTTAAAAGTACCAGTGTTTTGCATAGAGCTTACAACGTAACTTCGCTGACCTTCGTAAGGTGTAATAACTCCAATATCGGCAGGCTGAACACCTGCTTTGAAAAATCGGGTTACTATTTTTTCAACATTAGAAGCCTCTGTGCGATTAAGATATGATGTTCCTGAAGCAGAAATCTCTTCATTTCCGAGATTAGACCAAAACATCATCGGTGTATCTCCAACTGGCCAAGGAAAGTCAACTTCATCTCTAAGCCGCTCTTGCATCGTCACACCATTCTGGAGAGTTCCTTCATAGAACATATTTGACGGAAACTCTGATAGGCATGGATGCATACGATACTGGATATTGAGTCGAATAGGGTGCATTTCCAACATGACTAGACGTTCAAAAAGTGACTGATTTAAACCTGCTTTGGCAGCTTTTTTATTCATAATAAC
# Test system: E. necator
# Test: Leaf disc assay, dry inoculum (settling tower), decrease in disease severity / hyphal growth (Example 2)
# Details: decrease in disease severity (hyphal growth) relative to untreated control; time point 1 (untreated control hyphal growth ≥50%); value ± SE
row,Molecule,% decrease =/− SE TP1 [%]
1,B1,31 ± 8
2,B2,19 ± 6
3,B3,12 ± 5
4,B4,26 ± 7
5,B5,28 ± 5
6,B6,34 ± 6
7,B7,45 ± 2
8,B8,36 ± 4

# Same assay, conditions: decrease in disease severity (hyphal growth) relative to untreated control; time point 2; value ± SE
row,Molecule,% decrease =/− SE TP2 [%]
1,B1,26 ± 8
2,B2,6 ± 5
3,B3,7 ± 5
4,B4,19.5 ± 8
5,B5,18 ± 6
6,B6,19 ± 6
7,B7,40 ± 4
8,B8,24 ± 5
